The source of these data is US20230235057A1.

The target of assay [1] is human TGFβ1 protein (Sinobiological, 10804-H08H) (human) (UniProt P01137). The assay is described as follows: ELISA with reference to Example 5, reference sample.
The target is the same in assay [2]. Briefly: ELISA with reference to Example 5, plate coated with human TGFβ1. Background: An ELISA detects its analyte on a solid surface through an enzyme-linked reagent.
Assay [3] shares this target. The assay is described as follows: ELISA, plate coated with human TGFβ1, HRP-goat anti-human IgG detection.

Sequence of PD1/TGFβRII fusion protein (heavy): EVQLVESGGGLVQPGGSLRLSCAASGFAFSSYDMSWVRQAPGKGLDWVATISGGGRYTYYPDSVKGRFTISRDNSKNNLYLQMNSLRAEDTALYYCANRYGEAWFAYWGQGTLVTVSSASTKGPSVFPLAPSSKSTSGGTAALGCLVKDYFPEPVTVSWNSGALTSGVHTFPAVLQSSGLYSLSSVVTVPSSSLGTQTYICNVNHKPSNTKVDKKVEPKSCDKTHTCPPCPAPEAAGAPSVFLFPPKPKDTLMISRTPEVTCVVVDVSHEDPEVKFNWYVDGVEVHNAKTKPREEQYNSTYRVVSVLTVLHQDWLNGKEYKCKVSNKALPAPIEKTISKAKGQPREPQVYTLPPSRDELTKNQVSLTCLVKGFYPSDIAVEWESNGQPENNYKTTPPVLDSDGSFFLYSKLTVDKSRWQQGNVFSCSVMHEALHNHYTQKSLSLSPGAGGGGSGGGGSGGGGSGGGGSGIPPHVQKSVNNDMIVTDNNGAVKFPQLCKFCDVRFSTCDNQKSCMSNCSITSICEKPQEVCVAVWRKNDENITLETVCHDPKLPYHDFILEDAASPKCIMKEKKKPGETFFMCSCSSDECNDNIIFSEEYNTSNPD
Sequence of PD1/TGFβRII fusion protein (light): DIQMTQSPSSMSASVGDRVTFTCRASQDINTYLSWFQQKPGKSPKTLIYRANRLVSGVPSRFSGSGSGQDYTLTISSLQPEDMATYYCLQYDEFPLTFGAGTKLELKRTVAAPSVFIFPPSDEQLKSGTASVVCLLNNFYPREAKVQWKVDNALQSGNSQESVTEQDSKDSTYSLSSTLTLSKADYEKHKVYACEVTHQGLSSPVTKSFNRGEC

A word on the EC50: it is the concentration that produces a half-maximal response. Lower therefore signals a more potent agent. Regarding PD1/TGFβRII fusion protein, the Binding activity (EC50 of control / EC50 of test sample) in assay [1] was 100%. Moreover, the EC50 in assay [2] came out at 0.0617 µg/mL; in assay [3], 0.398 nM.
